Test results reported in the RNAGym collection of RNA variant scans (doi:10.1093/molbev/msab373).

B1: Azoarcus group I ribozyme (parent)
chain: GUGCCUUGCGCCGGGAAACCACGCAAGGGAUGGUGUCAAAUUCGGCGAAACCUAAGCGCCCGCCCGGGCGUAUGGCAACGCCGAGCCAAGCUUCGGCGCCUGCGCCGAUGAAGGUGUAGAGACUAGACGGCACCCACCUAAGGCAAACGCUAUGGUGAAGGCAUAGUCCAGGGAGUGGCGAAAGUCACACAAACCGG

Variants of: B1
Assay: reverse-splicing fitness (ratio to wild type); higher = more active; in vitro selection; Mg2+ level not given
Method in brief: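 An in vitro group I ribozyme library with randomized positions was T7-transcribed and gel-purified. In triplicate, 10 pmol RNA in EPPS pH 7.5 was reacted with 50 pmoles of a 30-nt RNA substrate for 1 h at 37 °C across several added MgCl2 levels (1–48 mM), then stopped with EDTA. Products were reverse transcribed from a substrate-complementary primer, PCR-amplified and sequenced (HiSeq 4000). Fitness is a variant's read proportion after selection over that before, normalised to wild type.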

Row | Variant | reverse-splicing fitness
1 | C82G A120C A145U C150A | 0.0209
2 | C82G A120C A145U C150U | 0.11
3 | C82G A120C A145U C150G C169A | 0.00974
4 | C82G A120C A145U C150G C169G | 0.00766
5 | C82G A120C A145U C150G C169U | 0.0102
6 | C82G A120G A145C C150A U176A | 0.0102
7 | C82G A120G A145C C150A U176G | 0.00453
8 | C82G A120G A145C C150A U176C | 0.00828
9 | C82G A120G A145G | 0.0281
10 | C82G A120G A145C | 0.0276
11 | C82G A120C A145C C150U C169A U176C | 0.00587
12 | C82G A120C A145C C150U C169A U176G | 0.00525
13 | C82G A120C A145C C150U C169A U176A | 0.0117
14 | C82G A120C A145U C150G C169G U176G | 0.00427
15 | C82G A120C A145U C150G C169G U176A | 0.00782
16 | C82G A120C A145U C150G C169G U176C | 0.00634
17 | C82G A120C A145G C150A C169A U176C | 0.0236
18 | C82G A120C A145G C150A C169A U176A | 0.0227
19 | C82G A120C A145G C150A C169A U176G | 0.00671
20 | C82G A120C C169U U176C | 0.0155
21 | C82G A120C C169U U176A | 0.019

Row | Variant | reverse-splicing fitness
22 | C82G A120C C169U U176G | 0.00468
23 | C82G A120C C150A C169G U176A | 0.0187
24 | C82G A120C C150A C169G U176G | 0.00501
25 | C82G A120C C150A C169G U176C | 0.0222
26 | C82G A120C A145C C150U C169U | 0.0122
27 | C82G A120C A145C C150U C169A | 0.008
28 | C82G A120C A145C C150U C169G | 0.00749
29 | C82G A120C A145U C150A C169G | 0.00739
30 | C82G A120C A145U C150A C169U | 0.00929
31 | C82G A120C A145U C150A C169A | 0.00989
32 | C82G A111U C169U | 0.0134
33 | C82G A120C C169G U176A | 0.0172
34 | C82G A120C C169G U176G | 0.00385
35 | C82G A120C C169G U176C | 0.0176
36 | C82G A120C C150U C169A U176A | 0.0177
37 | C82G A120C C150U C169A U176C | 0.0133
38 | C82G A120C C150U C169A U176G | 0.00618
39 | C82G A120G A145C C150G U176A | 0.00713
40 | C82G A120G A145C C150G U176G | 0.00333
41 | C82G A120G A145C C150G U176C | 0.00894
42 | C82G A120C A145C C150G C169A U176C | 0.00752

Row | Variant | reverse-splicing fitness
43 | C82G A120C A145C C150G C169A U176G | 0.00496
44 | C82G A120C A145C C150G C169A U176A | 0.0101
45 | C82G A120C C150G U176G | 0.00413
46 | C82G A120C C150G U176A | 0.00858
47 | C82G A120C C150G U176C | 0.0138
48 | C82G A120G A145C C169U | 0.0209
49 | C82G A120G A145C C169A | 0.0237
50 | C82G A120G A145C C169G | 0.0468
51 | C82G A120C A145U C150G C169A U176C | 0.0102
52 | C82G A120C A145U C150G C169A U176A | 0.0119
53 | C82G A120C A145U C150G C169A U176G | 0.00473
54 | C82G A120C A145C C150G C169G U176A | 0.0101
55 | C82G A120C A145C C150G C169G U176G | 0.00536
56 | C82G A120C A145C C150G C169G U176C | 0.00954
57 | C82G A120G A145C C169A U176G | 0.0031
58 | C82G A120G A145C C169A U176C | 0.0123
59 | C82G A120G A145C C169A U176A | 0.0144
60 | C82G A120G A145C C150U C169A | 0.0116
61 | C82G A120G A145C C150U C169G | 0.0163
62 | C82G A120G A145C C150U C169U | 0.0103
63 | C82G A120C A145G C150U | 0.163

Row | Variant | reverse-splicing fitness
64 | C82G A120C A145G C150A | 0.0297
65 | C82G A120C A145G C150G | 0.0242
66 | C82G A120C A145C C150A C169A U176G | 0.00522
67 | C82G A120C A145C C150A C169A U176A | 0.0154
68 | C82G A120C A145C C150A C169A U176C | 0.00645
69 | C82G A120C A145U U176A | 0.0752
70 | C82G A120C A145U U176C | 0.0999
71 | C82G A120C A145U U176G | 0.0177
72 | C82G A120C A145U C169G U176A | 0.0121
73 | C82G A120C A145U C169G U176G | 0.00368
74 | C82G A120C A145U C169G U176C | 0.0138
75 | C82G A120C A145U C169A U176A | 0.0121
76 | C82G A120C A145U C169A U176C | 0.00989
77 | C82G A120C A145U C169A U176G | 0.00379
78 | C82G A120G A145C C150G C169A U176G | 0.00487
79 | C82G A120G A145C C150G C169A U176C | 0.00681
80 | C82G A120G A145C C150G C169A U176A | 0.00893
81 | C82G A120G A145C C150A C169G U176A | 0.0232
82 | C82G A120G A145C C150A C169G U176C | 0.0136
83 | C82G A120G A145C C150A C169G U176G | 0.00456
84 | C82G A120C A145G C150U C169A U176C | 0.0158
